± gives the uncertainty stated by the source.

For 102 substances, amyloid nucleation score results are on record in the supplement of paper PMC12042874.

The data set can be described thus: amyloid nucleation score (Sup35N fusion, yeast selection) (log enrichment); library NNK2; higher = more nucleation; inactive = no reads after selection. In a few lines: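 Sup35N was fused to peptides of 20 random codons and expressed in psi-negative yeast, which were induced with 100 μM copper sulfate for 24 hours and then grown on medium lacking adenine and uracil for 7 days at 30°C. Plasmid inserts from input and output were sequenced on Illumina. The nucleation score is the DiMSum log enrichment of output over input reads, centred on the mode score of non-aggregating sequences. Sequences with under 100 input reads were left out, and random libraries had three technical output replicates.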
PVGEEVADVMLTFYKHHLVD had an amyloid nucleation score of -0.913 ± 1.1.

On to LWDEVAGVAVKI, for which the amyloid nucleation score came to 3.3 ± 0.1.

In the case of LLYNGVILLECGWYMVSVAS, the amyloid nucleation score is -0.071 ± 0.29.

The substance KWMFEVTVYGRWYVTHQAGL came in with an amyloid nucleation score of 4.827 ± 0.041.

STKITAESGR had an amyloid nucleation score of 0.502 ± 0.41.

In turn, FEGFNAMVSGLRYSSMGCFH came in with an amyloid nucleation score of 0.334 ± 0.25.

Take SVAFILVPNEWLVKRAASSG: the amyloid nucleation score was -0.264 ± 0.45.

Substance WNTIYMSTFVIRDFAIYIKY registered an amyloid nucleation score of 7.53 ± 0.058.

As to INWCYAPRLYFNHRWWDYCG, the amyloid nucleation score stood at 6.586 ± 0.054.

With FTVMFLLKMISFKGALHLRL, the amyloid nucleation score was -0.764 ± 0.65.

Take CSFLSLY: the amyloid nucleation score is -0.485 ± 0.64.

As for VVSSSTSFTAGTRVM, the amyloid nucleation score result is “inactive”.

The substance GGIFFCGIWCLVYDVSVFVA showed an amyloid nucleation score of 3.43 ± 0.11.

With AYSFDKHKNKGLSTASVGHM, the amyloid nucleation score was 0.894 ± 0.55.

In the case of SKYGMFILGNRSNGDWFNMV, the amyloid nucleation score is -0.673 ± 0.48.

Regarding VLRTPIIHTMGTGQV, the amyloid nucleation score is 0.297 ± 0.56.

For LLCNWSPTLRHYFMRWDLGC, the amyloid nucleation score is -0.901 ± 0.36.

As to CIFGMDKHTYQHVVHSTLLV, the amyloid nucleation score is 0.181 ± 0.16.

With QVLTMNRLWVVPPAHYCVVG, the amyloid nucleation score is 0.84 ± 0.53.

As for KPDTMNFWVVLALNFDLGRT, the amyloid nucleation score came to 2.77 ± 0.099.

In the case of GVKRLVTGVCNKYRDIFFVG, the amyloid nucleation score was -0.22 ± 1.

As to LRVMYHFNQCQFSYLRDFGR, the amyloid nucleation score was 8.38 ± 0.063.

RPCQGLDTSVRCVLMMRYYR displayed an amyloid nucleation score of 4.36 ± 0.046.

Consider VIPSSILLEGYVLLYACYLP, for which the amyloid nucleation score is -0.217 ± 0.44.

VTKSRRFSFLYYVESLHNRC gave an amyloid nucleation score of 4.25 ± 0.048.

Consider HWWLIIRDLKASRIDVRQWE, for which the amyloid nucleation score result is “inactive”.

In the case of VSFKTSGKLCTAWFVWGLF, the amyloid nucleation score was -0.108 ± 0.34.

SYHVVCFVYVLVTFLLWCSH had an amyloid nucleation score of 2.22 ± 0.14.

As to FSMLRVYHLRPDLRVFCCAF, the amyloid nucleation score is -0.108 ± 1.1.

In the case of NSSSYVDFGTICMDSIWMS, the amyloid nucleation score was 0.041 ± 0.53.

For FMTLAGFSGAVEASGADWRR, the amyloid nucleation score was -0.606 ± 0.63.

As to RYVGRDR, the amyloid nucleation score result was “inactive”.

Turning to WIMSVGTAKWRDGQPSACRK, the amyloid nucleation score is 3.46 ± 0.13.

In the case of GYFAYRVICNVVGDTGFSLA, the amyloid nucleation score was -0.06 ± 1.1.

Substance VLGGLCSVFGDDGTAYYSSS returned an amyloid nucleation score of 0.417 ± 0.36.

ALPTWWVDKNLLSCLYSELS: the amyloid nucleation score is -0.104 ± 0.62.

Take CFLGLYGDIASIFNQ: the amyloid nucleation score is -0.889 ± 0.45.

As to CVGNNMCSGKNF, the amyloid nucleation score entry is “inactive”.

LVRSIHMVPLTWFRSNSGMF yielded an amyloid nucleation score of 4.13 ± 0.078.

Consider NVFTNTLVN, for which the amyloid nucleation score came to 8.667 ± 0.081.

ALCRGW came in with an amyloid nucleation score of -0.689 ± 0.41.

Regarding IFDVNCPS, the amyloid nucleation score is -0.196 ± 1.1.

In turn, SDGLGSILIFGPPNY registered an amyloid nucleation score of -0.992 ± 0.3.

On to VYFDNGISK, for which the amyloid nucleation score was -1.6 ± 1.1.

As to CYRYVGCSTYSTDQVVCAYK, the amyloid nucleation score was found to be 6.006 ± 0.051.

Turning to SKLNAHVLAVFRLNEMNNHQ, the amyloid nucleation score turned out to be 3.48 ± 0.056.

On to TLYFYFRLSW, for which the amyloid nucleation score is 0.276 ± 0.8.

IVMCTRRDIA showed an amyloid nucleation score of -0.577 ± 0.56.

As to SSFVNRWCEHYNGVVVSWLL, the amyloid nucleation score amounted to 0.236 ± 0.17.

For YNDSDFWGRVWSTHAPCKAT, the amyloid nucleation score was -0.134 ± 1.1.

As to IPFRFDMSRSFISSTFTVRI, the amyloid nucleation score is -0.533 ± 0.63.

In the case of PDDLYCNPEGSLYQSIW, the amyloid nucleation score entry is “inactive”.

LVCELYI came in with an amyloid nucleation score of -0.171 ± 0.39.

In the case of RSSLQSPWGYPKPMWLRSCA, the amyloid nucleation score amounted to 1.06 ± 0.33.

In turn, IVYYG displayed an amyloid nucleation score of 0.801 ± 0.38.

The substance LTSGNSMIVVS gave an amyloid nucleation score of 0.15 ± 0.18.

As for LQRSHSWTQLPLCTSRLRLL, the amyloid nucleation score was 0.294 ± 1.1.

The substance MVHTKYPLWSNSRVLWDSVT displayed an amyloid nucleation score of 0.397 ± 0.64.

Substance KLVDLKVRFDSHLDNLEVAL showed an amyloid nucleation score of -0.204 ± 0.46.

Turning to GVQYRSGESGDSASYWRLGG, the amyloid nucleation score was 0.628 ± 0.38.

Regarding IFVGIIKIVCWNNEGVDDLQ, the amyloid nucleation score is 4.61 ± 0.063.

On to ILISRIFIFDNYMIYLCCCG, for which the amyloid nucleation score was -0.762 ± 0.79.

CDVGFSHRYSSNYDKTWDMI displayed an amyloid nucleation score of -0.7 ± 0.78.

Regarding ASSNLNDTYITIDADSVHRR, the amyloid nucleation score was found to be 0.033 ± 0.49.

For the substance VMVDMGGWHEAWLVTSIRWS, the amyloid nucleation score worked out at 0.889 ± 0.3.

FSYMWAHTGSFPRRQVIITI yielded an amyloid nucleation score of -0.596 ± 0.55.

With SNVLFWI, the amyloid nucleation score entry was “inactive”.

For LVFNVLNRFKSARSSRCAGS, the amyloid nucleation score was -1.14 ± 0.61.

The substance SNEGWIKCWILYFVFGAWMI returned an amyloid nucleation score of -0.896 ± 0.79.

Regarding IRNVSYDMGCELSHDMVRSR, the amyloid nucleation score was 0.044 ± 1.1.

As to STVICSVYFDVVASFDIVYI, the amyloid nucleation score is 1.39 ± 0.24.

Turning to FISSVIIGYSDPGVEGILLV, the amyloid nucleation score is -0.922 ± 0.78.

For ACCRTNFATLVLKEKMNLD, the amyloid nucleation score worked out at 0.326 ± 0.3.

In the case of MDFYCRWVVWFQEGNF, the amyloid nucleation score stood at 3.45 ± 0.058.

Regarding HHAHGFRPIGMCSCISMDPS, the amyloid nucleation score was 7.87 ± 0.059.

In the case of GGMDNQCHLVRCGRRSLAPV, the amyloid nucleation score came out at 1.65 ± 0.4.

Take GINFVF: the amyloid nucleation score was -0.287 ± 0.79.

As to PNSRGLSQVNLSFVENRRWS, the amyloid nucleation score is 3.84 ± 0.044.

Regarding VCFVM, the amyloid nucleation score was -0.016 ± 0.79.

HCCHRFYMDSEIACTCFTTM gave an amyloid nucleation score of -0.523 ± 0.56.

In turn, DTWVLDIMYFSLRYWVFVSV came in with an amyloid nucleation score of 0.228 ± 1.

Regarding LCDLVKASSMFANGSDHFIV, the amyloid nucleation score was -0.569 ± 0.61.

With TTYSRS, the amyloid nucleation score is -1.26 ± 0.62.

Regarding TFGESSIVNNPYFLHESGHS, the amyloid nucleation score was 0.813 ± 0.48.

For RLNCLSTWIVYCGPGYVSSV, the amyloid nucleation score was -0.571 ± 0.45.

VKAWYWLKARFVLWTVGARL displayed an amyloid nucleation score of -0.093 ± 0.79.

With TCRQSEATLLVLEYVRESCS, the amyloid nucleation score came out at 0.809 ± 0.3.

In turn, VLVMLGGNSARVSCNWVM showed an amyloid nucleation score of 7.457 ± 0.031.

Turning to YKVLTSPRFKEDPFLYGCWI, the amyloid nucleation score was -0.353 ± 0.53.

For the substance GTRLNYFNWIICGGETGCAA, the amyloid nucleation score is -0.171 ± 1.

RLGEWGFNRLVWFNKEAVCS returned an amyloid nucleation score of 0.495 ± 0.47.

The substance AKVWDCGSPKVQYIVARQVV came in with an amyloid nucleation score of 0.042 ± 0.46.

Substance VGEYLCEPATLY showed an amyloid nucleation score of -0.018 ± 1.1.

As to MKTGLGVFRSFDLVVYNRR, the amyloid nucleation score entry is “inactive”.

Turning to VYMCFSPVVNIMTVISFLAR, the amyloid nucleation score came to 5.23 ± 0.093.

With ANWQWPYCCCCLEGIGRNLF, the amyloid nucleation score stood at 4.94 ± 0.073.

In turn, SAPECNLAARVFYLLSPMGM gave an amyloid nucleation score of 0.13 ± 1.1.

In turn, VSLRYRKRQWCYRVKWSITD gave an amyloid nucleation score of -1.36 ± 0.48.

The substance VLNIFVT displayed an amyloid nucleation score of 7.248 ± 0.061.

With HLSFGFRRNRR, the amyloid nucleation score was found to be 0.967 ± 0.2.

Regarding ACQPVWIESRFSLAERTRLS, the amyloid nucleation score came out at 0.012 ± 1.

For GMSRYMHSIYD, the amyloid nucleation score was found to be 1 ± 0.41.
